Changes are numbered by the printed parent chain.
B1: SC16.143 (antibody, V domains shown)
VH: QVQLQQSGPELVKPGASVRISCKASGYTFTSYYIHWVKQRPGQGLEWIGWIYPGNGNTKYNEKFKGKATLTADKSSSTAYMQISSLTSEDSAVYFCARERWLLLWFAYWGQGTLVTVSA
VL: DVLMTQTPLSLPVSLGDQASISCRSSQSIVHSNGNTYLEWYLQKPGQSPKLLIYKVSNRFSGVPDRFSGSGSGTDFTLKISRVEAEDLGVYYCFQGSHVPLTFGAGTKLELK
notes: murine mAb; variable regions only
B2: SC16.144 (antibody, V domains shown)
VH: QIQLVQSGPELKKPGETVKISCKASGYTFTNYGMNWVKQAPGKGLKWVGWINTYTGEPTYADDFKGRFAFSLETSASTAYLQIDNLKNEDTATYFCARVGDYVGFDYWGQGTTLTVSS
VL: SIVMTQTPKFLLVSAGDRVTITCKASQSVSNDVGWYQQKPGQSPKLLIYYASNRYNGVPDRFTGSGYGTDFTFTISTVQAEDLAVYFCQQDYSSPWTFGGGTKLEIK
notes: as for B1
B3: SC16.8 (antibody, V domains shown)
VH: QAQLQQSGAELVRPGTSVKVSCKASGYAFTNYLIEWVKQRPGQGLEWIGVINPGTGGTNYNENFKGKATLTADKSSSTAYMQLSSLTSDDSAVYFCARSPYDYHEGAMDYWGQGTSVTVSS
VL: EIQMTQSPSSMSASLGDRITITCQATQDIVKNLNWYQQKPGKPPSFLIYYAIELAEGVPSRFSGSGSGSDYSLTISNLESEDFADYYCLQFYEFPFTFGAGTKLELK
notes: as for B1
B4: SC16.126 (antibody, V domains shown)
VH: QVQMKESGPGLVAPSQSLSITCTVSGSSLTNYGVHWVRQPPGKGLEWLGVIWAGGSTNYNSALMSRLSISKDNSKSQVFLKMNSLQTDDTAMYYCARDWEGWFAYWGQGTLVTVSA
VL: DIQMNQSPSSLSASLGDTITITCHASQNINVWLSWYQQKPGNIPKLLIYKASNLHTGVPSRFSGSGSGTGFTLTISSLQPEDIATYYCQQGQSYPFTFGSGTKLEIK
notes: as for B1
B5: SC16.149 (antibody, V domains shown)
VH: B4 VH with M4L, T23A, S27F, N31S, Y32F, N60Y, K71I
VL: B4 VL with N53H, F62L, K103T
notes: as for B1
B6: SC16.7 (antibody, V domains shown)
VH: EVQLQQSGPELVKPGASVKISCKASGYSFTGYKMHWVKQSHVKSLEWIGRINPYNGATSYNQNFKDKATLTVDKSSSTAYMDLHSLTSEDSAVYFCARGDYRYDWFAYWGQGTLVTVSA
VL: NIMMTQSPSSLAVSAGEKVTMSCKSSQSVLYSSNQKNYLAWYQQKPGQSPKLLIYWASTRESGVPDRFTGSGSGTDFTLTISTVQVEDLAVYYCHQYLSSWTFGGGTKLEIK
notes: as for B1
B7: SC16.147 (antibody, V domains shown)
VH: QIQLVQSGPELTKPGETVKISCKASGYTFTDYSLHWVKQALGKGLKWMGWINTETGEPAYADDFKGRFAFSLETSASTAYLQINDLKNEDTTTYFCGIYDGYAMDYWGQGTSVTVSS
VL: DIQMTQTASSLSASLGDRVTISCRASQDINNYLNWYQQKPDGTVKLLIYYTSRLHSGVPSRFSGSGSGTDYSLTISILEQEDIATYFCQQGDTLPWTFGGGTKLEIK
notes: as for B1
B8: SC16.4 (antibody, V domains shown)
VH: B7 VH with T12K, L34M, L41P, A59G, D85N, T92A, G97A, I98R
VL: B7 VL with A8T, N30S, I77N, Q80L, T93M
notes: as for B1
B9: SC16.5 (antibody, V domains shown)
VH: QVTLKESGPGILQPSQTLSLTCSFSGFSLSTSGMGVGWIRQPSGEGLEWLADIWWDDNKYYNPSLKSRLTISKDTSSNQVFLKITSVDTADTATYYCARRVNYVYDPYYAMDYWGQGTSVTVSS
VL: QIVLTQSPAIMSASPGEKVTMTCSASSSVSYMHWYQQKSGTSPKRWIYDTSKLASGVPARFSGSGSGTSYSLTISSMEAEDAATYYCQQWTRNPLTFGAGTKLELK
notes: as for B1
B10: SC16.25 (antibody, V domains shown)
VH: B9 VH with A51T, K83N, V104Y
VL: B9 VL with T50S, T91S, R92S
notes: as for B1
B11: SC16.11 (antibody, V domains shown)
VH: QIQLVQSGPELKKPGETVKISCKASGYTFTDYSMHWVKQAPGKGLKWMGWINTETVEPTYADDFMGRFAFSLETSASTAFLQINNLENEDTATYFCARFGSYAMDYWGQGTSVTVSS
VL: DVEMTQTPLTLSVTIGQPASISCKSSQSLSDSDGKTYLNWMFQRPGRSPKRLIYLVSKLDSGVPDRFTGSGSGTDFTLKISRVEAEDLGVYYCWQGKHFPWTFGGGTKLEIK
notes: as for B1
B12: SC16.18 (antibody, V domains shown)
VH: EVKLEESGGGLVQPGESMKLSCAASGFTFSDAWMDWVRQSPEKGLEWVAEIRNKANNHATYYAESVKGKFTISRDDSKSRVYLQMNNLRAADTGIYYCTAYSNFAYWGQGTLVTVST
VL: DIQMTQTTSSLSASLGDRVTISCRASQNIINYLNWYQQKPDGTVKLLIYYTSRLHSGVPSRFSGSGSGTDYSLTISNLEPEDIATYYCQQYSERPYTFGGGTKLEIK
notes: as for B1
B13: SC16.41 (antibody, V domains shown)
VH: B12 VH with P14F, E16G, A63P, K69R, A91E, A100G, N103S, T117A
VL: B12 VL with N28D, I29V, G68R
notes: as for B1
B14: SC16.3 (antibody, V domains shown)
VH: QVTLKESGPGILQPSQTLSLTCSFSGFSLSTSGMGVGWIRQPSGKGLEWLAHIWWDDVKRYNPALKSRLTISKDTSSSQVFLKIASVDTADTATYYCARIADYGGDYYAMDYWGQGTSVTVSS
VL: QIVLTQSPAIMSVSLGERVTMTCTASSSVSSSYLHWYQQKPGSSPKLWIYSTSNLASGVPARFSGSGSGTSYFFTISSMEAEDAATYYCHQYHRSPFTFGAGTKLKIR
notes: as for B1
B15: SC16.10 (antibody, V domains shown)
VH: QVTLKESGPGILQSSQTLSLTCSFSGFSLSTSGMGVGWIRQPSGKGLEWLAHIWWDDVKRYNPVLKSRLTISKDTSSSQVFLKIASVDTADTATYYCARLVDDLYYFDYWGQGTTLTVSS
VL: B14 VL with V13A, A61T, F73S, F74L, A101S, K106E, R108K
notes: as for B1
B16: SC16.148 (antibody, V domains shown)
VH: QIQLVQSGPELKKPGETVKISCKASGYTLTNYGMNWVKQAPGKGLKWMGWINTYTGEPTYADDFKGRFAFSLETSARIVYLQINNLKNEDTATYFCAKYEAHEGFVYWGQGTLVTVSA
VL: QIVLTQSPAIMSASPGEKVTMTCSASSSVSYMYWYQQKPGSSPRLLIYDTSNLASGVPVRFSGSGSGTSYSLTISRMEAEDTATYYCQEWSNNPLTFGDGTKLELK
notes: as for B1
B17: SC16.15 (antibody, V domains shown)
VH: QVQLQQSGAELAKPGASVKMSCKASGYTFTRYWIHWIKQRPGQGLEWIGYINPTTVYTEFNQNFKDKATLTADKSSTTASMQLSSLTSEDSAVYYCARGGSNFFDYWGQGTTLTVSS
VL: DIQMTQSPASLAASVGETVAITCRASENIYYNLAWYQQKQGKSPQLLIYTANSLEDGVPSRFSGSGSGTQYSLKINSMQPEDSATYFCKQAYDVPPTFGGGTKLEIK
notes: as for B1
B18: SC16.19 (antibody, V domains shown)
VH: EVQLQQSGAELVRPGASVKLSCTASGFNIKDSLLHWVKQRPEKGLEWIGWIDPEDGETKYAPNFQDKATITTDSSSNTAYLQLISLTSVDTAIYYCAYGNYVRHFDYWGQGTTLTVSS
VL: DIQMTQSPSSLSASLGGKVTFTCKASQDIHKYVAWYQHKPGKGPRLLIHYTSTLQPGISSRFSGSGSGRDYSFSISNLEPEDIATYYCLQYNNLYTFGGGTKLEIK
notes: as for B1

What follows are binders tested against T1, human DLL3 (immobilized human DLL3 or h293-hDLL3 cells) (human, UniProt Q9NYJ7 27-492, limits assumed) (assay: hybridoma screening on immobilized human DLL3 or on h293-hDLL3 cells).
T1 construct: the sentence says 'immobilized human DLL3 or h293-hDLL3 cells'
T1 sequence: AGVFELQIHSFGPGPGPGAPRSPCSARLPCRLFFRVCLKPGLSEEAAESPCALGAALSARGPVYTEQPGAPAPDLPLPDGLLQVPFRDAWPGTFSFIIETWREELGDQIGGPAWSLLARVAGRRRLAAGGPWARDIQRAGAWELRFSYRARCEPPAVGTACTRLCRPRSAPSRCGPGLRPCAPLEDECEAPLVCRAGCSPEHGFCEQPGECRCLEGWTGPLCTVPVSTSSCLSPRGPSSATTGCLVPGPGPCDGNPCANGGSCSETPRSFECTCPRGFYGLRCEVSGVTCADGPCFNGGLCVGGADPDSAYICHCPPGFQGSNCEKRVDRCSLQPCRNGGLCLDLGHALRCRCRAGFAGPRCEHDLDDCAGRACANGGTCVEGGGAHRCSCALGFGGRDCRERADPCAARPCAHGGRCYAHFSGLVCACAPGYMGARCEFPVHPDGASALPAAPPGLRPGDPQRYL

Binding result, binds:
B1
B2
B3
B4
B5
B6
B7
B8
B9
B10
B11
B12
B13
B14
B15
B16
B17
B18

From patent publication US20180044415A1 (AbbVie / Abbott, published 2018)
